# In publication PMC9200798:
# Columns and labels:
# [1] = tested on: P45520; assay: microfluidics-coupled TIRF microscopy of single filaments; barbed end depolymerization of ADP-Pi filaments, F-buffer with KCl replaced by 40 mM K2HPO4 and 10 mM KH2PO4; conditions: other: microfluidics-coupled TIRF microscopy of single filaments
# [2] = target: Leishmania major actin (Leishmania major) (UniProt P45520); assay: microfluidics-coupled TIRF microscopy of single filaments; barbed end polymerization from surface-anchored spectrin-actin seeds, G-actin with equimolar profilin in F-buffer (5 mM Tris-HCl pH 7.4, 50 mM KCl, 1 mM MgCl2); segmented, mixed or ATP-ATTO-488 filaments
# [3] = target: Leishmania major actin (Leishmania major) (UniProt P45520); assay: microfluidics-coupled TIRF microscopy of single filaments; pointed end depolymerization: pre-polymerized ADP-F-actin injected over 10 nM biotin-gelsolin held on neutravidin, F-buffer with 0.4 mM CaCl2, then F-buffer
# [4] = target: Leishmania major actin (Leishmania major) (UniProt P45520)
# [5] = target: rabbit skeletal muscle α-actin (rabbit (Oryctolagus cuniculus)) (UniProt P68135)
# [6] = target: Leishmania major actin (Leishmania major) (UniProt P45520); remark: listed apart in the source
substance,measurement,setting,value
Leishmania major actin,"barbed end depolymerization rate, ADP-Pi-actin",[1],~6 subunits/s
Leishmania major actin (from UniProt P45520 2-376) (natural protein),barbed end polymerization rate constant (with equimolar LmProfilin) (subunits/s/μM),[2],6
same,"pointed end depolymerization rate, ADP-actin",[3],3.5 subunits/s
Leishmania major cofilin (natural protein),"global fragmentation rate of LmActin filaments by LmCofilin against RbActin filaments by mammalian cofilin-1, microfluidics-coupled TIRF microscopy",[4],100 fold
Leishmania major twinfilin (natural protein),depolymerization rate of ADP-RbActin filaments with LmTwf,[5],0.5 subunits/s
same,"barbed end depolymerization rate of ADP-LmActin filaments without actin monomers, with LmTwf (0.1 and 1 μM) against buffer only",[6],3 subunits/s
same,"barbed end polymerization rate with 1 μM LmActin, 1 μM LmProfilin and 0–4 μM LmTwf; net depolymerization above 0.2 μM LmTwf",[6],8 subunits/s
